Test results taken from publication PMC2835748.

Test system: GST-PTB (polypyrimidine tract binding protein)
Assay: EMSA
Conditions: EMSA: 85 nM RNA, 50 mM HEPES pH 7.6, 25 mM KCl, 2.5 mM MgCl2, 1 mM DTT, 4% glycerol, 0.67 ug/ul yeast tRNA, 10 min at 30 C; 4% native gel with 5% glycerol

Substance: FCV gRNA 1-202 WT
- binding signal (relative to 1-245): 1

Substance: FCV gRNA 1-245
- binding signal (relative affinity (reference)): 1
